# Target: alpha thrombin (Homo sapiens, UniProt P00734;P00734 P00734:328-363,P00734:364-622)
# Test: MST; 20 mM HEPES pH 7.4, 150 mM NaCl, 2 mM CaCl2, 0.05% Tween; 10 nM thrombin
binder,measurement,value
GGTTGGTGTGGTTGG (structured_DNA) [HD1],Kd,5.4 nM

# Reference: patent publication US20250049935, “BOTTLEBRUSH CONJUGATES FOR USE AS OLIGONUCLEOTIDE ENHANCERS” (Northeastern University, published 2025)
